Data published in patent US20240117018A1.

Tests used:
Test in all cases: cell-based or functional assay
[1] = molecular target: HIV-1 Env of pseudovirus 235-47 (HIV-1)
[2] = molecular target: HIV-1 Env of pseudovirus 6811.v7.c18 (HIV-1)
[3] = molecular target: HIV-1 Env of pseudovirus BJOX025000.01.1 (HIV-1)
[4] = molecular target: HIV-1 Env of pseudovirus 6545.v4.c1 (HIV-1)
[5] = molecular target: HIV-1 Env of pseudovirus X2131_C1_B5 (HIV-1)
[6] = molecular target: HIV-1 Env of pseudovirus 231965.c01 (HIV-1)
[7] = molecular target: HIV-1 Env of pseudovirus T257-31 (HIV-1)
[8] = molecular target: HIV-1 Env of pseudovirus 6480.v4.c25 (HIV-1)
[9] = molecular target: HIV-1 Env of pseudovirus C1080.c03 (HIV-1)
[10] = molecular target: HIV-1 Env of pseudovirus 928-28 (HIV-1)
[11] = molecular target: HIV-1 Env of pseudovirus BJOX015000.11.5 (HIV-1)
[12] = molecular target: HIV-1 Env of pseudovirus X1254_c3 (HIV-1)
[13] = molecular target: HIV-1 Env of pseudovirus 0815.v3.c3 (HIV-1)
[14] = molecular target: HIV-1 Env of pseudovirus T278-50 (HIV-1)
[15] = molecular target: HIV-1 Env of pseudovirus R1166.c01 (HIV-1)
[16] = molecular target: HIV-1 Env of pseudovirus 620345.c01 (HIV-1)
[17] = molecular target: HIV-1 Env of pseudovirus X2088_c9 (HIV-1)
[18] = molecular target: HIV-1 Env of pseudovirus P0402_c2_11 (HIV-1)
[19] = molecular target: HIV-1 Env of pseudovirus 3817.v2.c59 (HIV-1)
[20] = molecular target: HIV-1 Env of pseudovirus 6540.v4.c1 (HIV-1)
[21] = molecular target: HIV-1 Env of pseudovirus X1632_S2_B10 (HIV-1)
[22] = molecular target: HIV-1 Env of pseudovirus 3103.v3.c10 (HIV-1)
[23] = molecular target: HIV-1 Env of pseudovirus C3347.c11 (HIV-1)
[24] = molecular target: HIV-1 Env of pseudovirus X1193_c1 (HIV-1)
[25] = molecular target: HIV-1 Env of pseudovirus R2184.c04 (HIV-1)
[26] = molecular target: HIV-1 Env of pseudovirus BJOX028000.10.3 (HIV-1)
[27] = molecular target: HIV-1 Env of pseudovirus 3016.v5.c45 (HIV-1)
[28] = molecular target: HIV-1 Env of pseudovirus T251-18 (HIV-1)
[29] = molecular target: HIV-1 Env of pseudovirus 263-8 (HIV-1)
[30] = molecular target: HIV-1 Env of pseudovirus R3265.c06 (HIV-1)
[31] = molecular target: HIV-1 Env of pseudovirus 9004SS_A3_4 (HIV-1)
[32] = molecular target: HIV-1 Env of pseudovirus 231966.c02 (HIV-1)
[33] = molecular target: HIV-1 Env of pseudovirus 6952.v1.c20 (HIV-1)
[34] = molecular target: HIV-1 Env of pseudovirus 6041.v3.c23 (HIV-1)
[35] = molecular target: HIV-1 Env of pseudovirus A07412M1.vrc12 (HIV-1)
[36] = molecular target: HIV-1 Env of pseudovirus 3301.v1.c24 (HIV-1)

Substance: N49P9 (antibody)
- neutralization IC50 [1]: 0.072 µg/mL
- neutralization IC80 [1]: 0.271 µg/mL
- neutralization MPI [1]: 98
- neutralization IC50 [2]: 0.249 µg/mL
- neutralization IC80 [2]: 1.2 µg/mL
- neutralization MPI [2]: 99
- neutralization IC50 [3]: 0.055 µg/mL
- neutralization IC80 [3]: 0.252 µg/mL
- neutralization MPI [3]: 100
- neutralization IC50 [4]: > 50 µg/mL
- neutralization IC80 [4]: > 50 µg/mL
- neutralization MPI [4]: 20
- neutralization IC50 [5]: 0.082 µg/mL
- neutralization IC80 [5]: 0.274 µg/mL
- neutralization MPI [5]: 100
- neutralization IC50 [6]: 0.253 µg/mL
- neutralization IC80 [6]: 1.16 µg/mL
- neutralization MPI [6]: 100
- neutralization IC50 [7]: 0.216 µg/mL
- neutralization IC80 [7]: 0.821 µg/mL
- neutralization MPI [7]: 100
- neutralization IC50 [8]: 0.017 µg/mL
- neutralization IC80 [8]: 0.047 µg/mL
- neutralization MPI [8]: 100
- neutralization IC50 [9]: 0.119 µg/mL
- neutralization IC80 [9]: 0.575 µg/mL
- neutralization MPI [9]: 100
- neutralization IC50 [10]: 0.094 µg/mL
- neutralization IC80 [10]: 0.339 µg/mL
- neutralization MPI [10]: 100
- neutralization IC50 [11]: 0.089 µg/mL
- neutralization IC80 [11]: 0.375 µg/mL
- neutralization MPI [11]: 100
- neutralization IC50 [12]: 0.04 µg/mL
- neutralization IC80 [12]: 0.104 µg/mL
- neutralization MPI [12]: 100
- neutralization IC50 [13]: 0.02 µg/mL
- neutralization IC80 [13]: 0.057 µg/mL
- neutralization MPI [13]: 100
- neutralization IC50 [14]: > 50 µg/mL
- neutralization IC80 [14]: > 50 µg/mL
- neutralization MPI [14]: 25
- neutralization IC50 [15]: 0.064 µg/mL
- neutralization IC80 [15]: 0.223 µg/mL
- neutralization MPI [15]: 100
- neutralization IC50 [16]: > 50 µg/mL
- neutralization IC80 [16]: > 50 µg/mL
- neutralization MPI [16]: 9
- neutralization IC50 [17]: 0.07 µg/mL
- neutralization IC80 [17]: 0.252 µg/mL
- neutralization MPI [17]: 100
- neutralization IC50 [18]: 0.028 µg/mL
- neutralization IC80 [18]: 0.085 µg/mL
- neutralization MPI [18]: 100
- neutralization IC50 [19]: 1.09 µg/mL
- neutralization IC80 [19]: 5.86 µg/mL
- neutralization MPI [19]: 100
- neutralization IC50 [20]: > 50 µg/mL
- neutralization IC80 [20]: > 50 µg/mL
- neutralization MPI [20]: 49
- neutralization IC50 [21]: 46.7 µg/mL
- neutralization IC80 [21]: > 50 µg/mL
- neutralization MPI [21]: 51
- neutralization IC50 [22]: 17.6 µg/mL
- neutralization IC80 [22]: > 50 µg/mL
- neutralization MPI [22]: 55
- neutralization IC50 [23]: 0.023 µg/mL
- neutralization IC80 [23]: 0.065 µg/mL
- neutralization MPI [23]: 100
- neutralization IC50 [24]: 0.025 µg/mL
- neutralization IC80 [24]: 0.081 µg/mL
- neutralization MPI [24]: 100
- neutralization IC50 [25]: 0.015 µg/mL
- neutralization IC80 [25]: 0.034 µg/mL
- neutralization MPI [25]: 100
- neutralization IC50 [26]: 0.031 µg/mL
- neutralization IC80 [26]: 0.134 µg/mL
- neutralization MPI [26]: 100
- neutralization IC50 [27]: 0.06 µg/mL
- neutralization IC80 [27]: 0.209 µg/mL
- neutralization MPI [27]: 100
- neutralization IC50 [28]: 0.147 µg/mL
- neutralization IC80 [28]: 0.517 µg/mL
- neutralization MPI [28]: 100
- neutralization IC50 [29]: 0.032 µg/mL
- neutralization IC80 [29]: 0.161 µg/mL
- neutralization MPI [29]: 100
- neutralization IC50 [30]: 0.135 µg/mL
- neutralization IC80 [30]: 0.812 µg/mL
- neutralization MPI [30]: 100
- neutralization IC50 [31]: 0.175 µg/mL
- neutralization IC80 [31]: 0.751 µg/mL
- neutralization MPI [31]: 100
- neutralization IC50 [32]: 0.074 µg/mL
- neutralization IC80 [32]: 0.244 µg/mL
- neutralization MPI [32]: 100
- neutralization IC50 [33]: 0.095 µg/mL
- neutralization IC80 [33]: 0.258 µg/mL
- neutralization MPI [33]: 100
- neutralization IC50 [34]: 0.089 µg/mL
- neutralization IC80 [34]: 0.777 µg/mL
- neutralization MPI [34]: 95
- neutralization IC50 [35]: 0.142 µg/mL
- neutralization IC80 [35]: 0.636 µg/mL
- neutralization MPI [35]: 100
- neutralization IC50 [36]: 0.072 µg/mL
- neutralization MPI [36]: 100

Substance: PGDM1400 (antibody)
- IC50 (Titer in TZM.bl cells) [1]: 0.005 µg/mL
- IC80 (Titer in TZM.bl cells) [1]: 0.032 µg/mL
- IC50 (Titer in TZM.bl cells) [2]: > 50 µg/mL
- IC80 (Titer in TZM.bl cells) [2]: > 50 µg/mL
- IC50 (Titer in TZM.bl cells) [3]: 0.087 µg/mL
- IC80 (Titer in TZM.bl cells) [3]: 0.573 µg/mL
- IC50 (Titer in TZM.bl cells) [4]: 0.003 µg/mL
- IC80 (Titer in TZM.bl cells) [4]: 0.039 µg/mL
- IC50 (Titer in TZM.bl cells) [5]: 0.128 µg/mL
- IC80 (Titer in TZM.bl cells) [5]: 0.568 µg/mL
- IC50 (Titer in TZM.bl cells) [6]: 0.025 µg/mL
- IC80 (Titer in TZM.bl cells) [6]: 1.28 µg/mL
- neutralization IC50 [7]: 0.002 µg/mL
- neutralization IC80 [7]: 0.031 µg/mL
- IC50 (Titer in TZM.bl cells) [8]: > 50 µg/mL
- IC80 (Titer in TZM.bl cells) [8]: > 50 µg/mL
- IC50 (Titer in TZM.bl cells) [9]: < 0.001 µg/mL
- IC80 (Titer in TZM.bl cells) [9]: < 0.001 µg/mL
- neutralization IC50 [10]: 0.22 µg/mL
- neutralization IC80 [10]: 1.25 µg/mL
- IC50 (Titer in TZM.bl cells) [11]: 0.52 µg/mL
- IC80 (Titer in TZM.bl cells) [11]: 10.6 µg/mL
- IC50 (Titer in TZM.bl cells) [12]: > 50 µg/mL
- IC80 (Titer in TZM.bl cells) [12]: > 50 µg/mL
- IC50 (Titer in TZM.bl cells) [13]: > 50 µg/mL
- IC80 (Titer in TZM.bl cells) [13]: > 50 µg/mL
- IC50 (Titer in TZM.bl cells) [14]: 0.574 µg/mL
- IC80 (Titer in TZM.bl cells) [14]: 4.94 µg/mL
- IC50 (Titer in TZM.bl cells) [15]: 1.43 µg/mL
- IC80 (Titer in TZM.bl cells) [15]: 6.92 µg/mL
- IC50 (Titer in TZM.bl cells) [16]: 0.009 µg/mL
- IC80 (Titer in TZM.bl cells) [16]: 40.3 µg/mL
- IC50 (Titer in TZM.bl cells) [17]: > 50 µg/mL
- IC80 (Titer in TZM.bl cells) [17]: > 50 µg/mL
- IC50 (Titer in TZM.bl cells) [18]: 0.01 µg/mL
- IC80 (Titer in TZM.bl cells) [18]: 0.033 µg/mL
- IC50 (Titer in TZM.bl cells) [19]: > 50 µg/mL
- IC80 (Titer in TZM.bl cells) [19]: > 50 µg/mL
- IC50 (Titer in TZM.bl cells) [20]: 0.004 µg/mL
- IC80 (Titer in TZM.bl cells) [20]: 0.028 µg/mL
- IC50 (Titer in TZM.bl cells) [21]: 0.055 µg/mL
- IC80 (Titer in TZM.bl cells) [21]: 1.45 µg/mL
- IC50 (Titer in TZM.bl cells) [22]: 0.671 µg/mL
- IC80 (Titer in TZM.bl cells) [22]: 2 µg/mL
- IC50 (Titer in TZM.bl cells) [23]: 0.011 µg/mL
- IC80 (Titer in TZM.bl cells) [23]: 0.051 µg/mL
- IC50 (Titer in TZM.bl cells) [24]: 0.219 µg/mL
- IC80 (Titer in TZM.bl cells) [24]: 0.781 µg/mL
- IC50 (Titer in TZM.bl cells) [25]: 0.003 µg/mL
- IC80 (Titer in TZM.bl cells) [25]: 0.012 µg/mL
- IC50 (Titer in TZM.bl cells) [26]: 0.072 µg/mL
- IC80 (Titer in TZM.bl cells) [26]: 0.963 µg/mL
- IC50 (Titer in TZM.bl cells) [27]: > 50 µg/mL
- IC80 (Titer in TZM.bl cells) [27]: > 50 µg/mL
- IC50 (Titer in TZM.bl cells) [28]: 8.62 µg/mL
- IC80 (Titer in TZM.bl cells) [28]: 43.1 µg/mL
- neutralization IC50 [29]: 0.02 µg/mL
- neutralization IC80 [29]: 0.103 µg/mL
- IC50 (Titer in TZM.bl cells) [30]: 0.013 µg/mL
- IC80 (Titer in TZM.bl cells) [30]: 0.041 µg/mL
- neutralization IC50 [31]: < 0.001 µg/mL
- neutralization IC80 [31]: 0.002 µg/mL
- IC50 (Titer in TZM.bl cells) [32]: 0.001 µg/mL
- IC80 (Titer in TZM.bl cells) [32]: 0.004 µg/mL
- IC50 (Titer in TZM.bl cells) [33]: 0.501 µg/mL
- IC80 (Titer in TZM.bl cells) [33]: 11.8 µg/mL
- IC50 (Titer in TZM.bl cells) [34]: 0.013 µg/mL
- IC80 (Titer in TZM.bl cells) [34]: 0.289 µg/mL
- IC50 (Titer in TZM.bl cells) [35]: 0.032 µg/mL
- IC80 (Titer in TZM.bl cells) [35]: 0.127 µg/mL
- IC50 (Titer in TZM.bl cells) [36]: 0.048 µg/mL
- IC80 (Titer in TZM.bl cells) [36]: 0.245 µg/mL
